Experiments:
[1] = target: MC4R(C319Ter), expressed from mCherry-2A-MC4R (human) (UniProt P32245)
[2] = target: wild-type MC4R (melanocortin 4 receptor), expressed from mCherry-2A-MC4R (human) (UniProt P32245)
[3] = target: MC4R(L328Ter), expressed from mCherry-2A-MC4R (human) (UniProt P32245)

α-MSH (peptide) gave an EC50 of α-MSH induced cAMP production, pGloSensor luciferase cAMP assay in transfected HEK293 cells (dose-response, 10 min stimulation) [1] of 2.7 nM, an EC50 of α-MSH induced cAMP production, pGloSensor luciferase cAMP assay in transfected HEK293 cells (dose-response, 10 min stimulation) [2] of 2.5 nM and an EC50 of α-MSH induced cAMP production, pGloSensor luciferase cAMP assay in transfected HEK293 cells (dose-response, 10 min stimulation) [3] of 3.3 nM.
